Reference: patent US20200150118A1

Target: T1, S100A9 (alarmin) in autologous bone marrow plasma of MDS patients (human) (UniProt P06702)
T1 sequence (looked up): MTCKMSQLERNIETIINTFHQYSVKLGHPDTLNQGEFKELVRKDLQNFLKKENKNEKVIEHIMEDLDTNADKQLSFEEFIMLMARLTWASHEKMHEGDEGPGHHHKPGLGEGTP
Experiment: cell-based or functional assay

reduction of the fraction of pyroptotic cells, CD33+ cells (MDS BM-MNC in autologous BM plasma, flow cytometry): 68%
reduction of the fraction of pyroptotic cells, CD71+ cells (MDS BM-MNC in autologous BM plasma, flow cytometry): 64%
reduction of the fraction of pyroptotic cells, progenitor cells (MDS BM-MNC in autologous BM plasma, flow cytometry): 23%
reduction of the fraction of pyroptotic cells, stem cells (MDS BM-MNC in autologous BM plasma, flow cytometry): 44%
Substance: S100A9 high-affinity chimeric (CD33-IgG1) decoy receptor (from UniProt P20138 18-259) (Fc fusion)
